Results taken from patent US20180155413A1 (AstraZeneca / MedImmune, published 2018).

Tests used:
Assay in all cases: cell-based or functional assay
[1] = target: HA of A/Wilson Smith N/33 (H1N1) (influenza A virus, UniProt P03454 18-565)
[2] = target: HA of A/Beijing/262/95 (H1N1) (influenza A virus)
[3] = target: HA of A/Solomon Island/3/2006 (H1N1) (influenza A virus)
[4] = target: HA of A/California/07/2009 (H1N1) (influenza A virus)
[5] = target: HA of A/Hong Kong/8/68 (H3N2) (influenza A virus)
[6] = target: HA of A/Victoria/3/75 (H3N2) (influenza A virus)
[7] = target: HA of A/Shan dong/9/93 (H3N2) (influenza A virus)
[8] = target: HA of ca A/Panama/2007/99 (H3N2) (influenza A virus)
[9] = target: HA of ca B/Beijing/243/97 (victoria) (influenza B virus)
[10] = target: HA of B/Hong Kong/330/2001 (victoria) (influenza B virus)
[11] = target: HA of B/Malaysia/2506/2004 (victoria) (influenza B virus)
[12] = target: HA of B/Yamanashi/166/98 (yamagata) (influenza B virus)
[13] = target: HA of B/Sichuan/379/99 (yamagata) (influenza B virus)
[14] = target: HA of B/Florida/4/2006 (yamagata) (influenza B virus)
[15] = target: HA of B/Ohio/1/2005 (victoria) (influenza B virus)

Sequence of HA of A/Wilson Smith N/33 (H1N1) (P03454 18-565 limits assumed): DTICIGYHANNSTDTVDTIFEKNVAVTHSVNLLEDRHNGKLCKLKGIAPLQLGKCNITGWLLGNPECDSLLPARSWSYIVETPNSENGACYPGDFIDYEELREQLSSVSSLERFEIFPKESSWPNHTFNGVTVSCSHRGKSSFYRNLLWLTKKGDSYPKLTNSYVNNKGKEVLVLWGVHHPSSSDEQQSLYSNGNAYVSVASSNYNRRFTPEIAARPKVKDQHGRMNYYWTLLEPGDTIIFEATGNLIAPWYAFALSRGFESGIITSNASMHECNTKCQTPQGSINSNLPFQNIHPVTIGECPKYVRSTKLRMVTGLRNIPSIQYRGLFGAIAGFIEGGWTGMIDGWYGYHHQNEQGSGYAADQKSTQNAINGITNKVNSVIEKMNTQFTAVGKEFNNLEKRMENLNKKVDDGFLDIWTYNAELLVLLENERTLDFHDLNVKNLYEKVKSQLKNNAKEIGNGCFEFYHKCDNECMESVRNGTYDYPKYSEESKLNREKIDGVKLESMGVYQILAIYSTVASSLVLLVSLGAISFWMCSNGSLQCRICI

Binder	Neutralization (IC50) [1] [nM]	Neutralization (IC50) [2] [nM]	Neutralization (IC50) [3] [nM]	Neutralization (IC50) [4] [nM]	Neutralization (IC50) [5] [nM]	Neutralization (IC50) [6] [nM]	Neutralization (IC50) [7] [nM]	Neutralization (IC50) [8] [nM]	Neutralization (IC50) [9] [nM]	Neutralization (IC50) [10] [nM]	Neutralization (IC50) [11] [nM]	Neutralization (IC50) [12] [nM]	Neutralization (IC50) [13] [nM]	Neutralization (IC50) [14] [nM]	Neutralization (IC50) [15] [nM]
FBD94 IgG (antibody, V domains shown) VH: EVQLVESGGGLVQPGRSLRLSCAVSGFIFEDYAINWVRQAPGKGLEWVSIISWDSGRIGYADSVRGRFTISRDNAKNSSFLQMNSLRPEDTAVYYCVKDMLAYYYDGSGIRYNLYGMDVWGQGTTVTVSS VL: EIVLTQSPATLSLSPGERATLSCRASRSITTFLAWYQQKPGQAPRLLIYDASNRATGVPARFSGSGSGTDFTLTINSLEPDDFAIYYCQQRDHWPPIFGQGTRLEIK	> 1000	> 1000	> 1000	> 1000	> 1000	> 1000	> 1000	> 1000	0.1	0.1	0.1	0.1	0.2	0.1	
FY1/39 BiS4 100/44 (bispecific antibody) light: DIQMTQSPSSLSASVGDRVTITCRTSQSLSSYLHWYQQKPGKAPKLLIYAASSLQSGVPSRFSGSGSGTDFTLTISSLQPEDFATYYCQQSRTFGQGTKVEIKRTVAAPSVFIFPPSDEQLKSGTASVVCLLNNFYPREAKVQWKVDNALQSGNSQESVTEQDSKDSTYSLSSTLTLSKADYEKHKVYACEVTHQGLSSPVTKSFNRGEC heavy: not shown	10.6	20.2	3.9	8.2	10.6	26.4	12.8	152	5.8	69.3	27.6	0.9	8.2	3.6	5.6
FY1/39 BiS4 43/105 (bispecific antibody) light: DIQMTQSPSSLSASVGDRVTITCRTSQSLSSYLHWYQQKPGKAPKLLIYAASSLQSGVPSRFSGSGSGTDFTLTISSLQPEDFATYYCQQSRTFGQGTKVEIKRTVAAPSVFIFPPSDEQLKSGTASVVCLLNNFYPREAKVQWKVDNALQSGNSQESVTEQDSKDSTYSLSSTLTLSKADYEKHKVYACEVTHQGLSSPVTKSFNRGEC heavy: not shown	4.3	10.9	2.6	7.1	4	6.5	20.4	52.7	2.6	19.1	12.6	0.6	3.5	1.6	5.4
GL20/39FTL BiS4 43/105 (bispecific antibody) light: DIQMTQSPSSLSASVGDRVTITCRTSQSLSSYTHWYQQKPGKAPKLLIYAASSRGSGVPSRFSGSGSGTDFTLTISSLQPEDFATYYCQQSRTFGQGTKVEIKRTVAAPSVFIFPPSDEQLKSGTASVVCLLNNFYPREAKVQWKVDNALQSGNSQESVTEQDSKDSTYSLSSTLTLSKADYEKHKVYACEVTHQGLSSPVTKSFNRGEC heavy: not shown	9.6	11.8	3.8	20.8	6.3	14.9	22.2	35.5	23.5	164	16.2	1.1	8.7	4.2	17.5
